# Reference: IntAct's records for PubMed 22193721
# B1: Beta-adrenergic receptor kinase 1 (Bos taurus (Bovine)), P21146 (parent)
# chain: MADLEAVLADVSYLMAMEKSKATPAARASKKILLPEPSIRSVMQKYLEDRGEVTFEKIFSQKLGYLLFRDFCLKHLEEAKPLVEFYEEIKKYEKLETEEERLVCSREIFDTYIMKELLACSHPFSKSAIEHVQGHLVKKQVPPDLFQPYIEEICQNLRGDVFQKFIESDKFTRFCQWKNVELNIHLTMNDFSVHRIIGRGGFGEVYGCRKADTGKMYAMKCLDKKRIKMKQGETLALNERIMLSLVSTGDCPFIVCMSYAFHTPDKLSFILDLMNGGDLHYHLSQHGVFSEADMRFYAAEIILGLEHMHNRFVVYRDLKPANILLDEHGHVRISDLGLACDFSKKKPHASVGTHGYMAPEVLQKGVAYDSSADWFSLGCMLFKLLRGHSPFRQHKTKDKHEIDRMTLTMAVELPDSFSPELRSLLEGLLQRDVNRRLGCLGRGAQEVKESPFFRSLDWQMVFLQKYPPPLIPPRGEVNAADAFDIGSFDEEDTKGIKLLDSDQELYRNFPLTISERWQQEVAETVFDTINAETDRLEARKKTKNKQLGHEEDYALGKDCIMHGYMSKMGNPFLTQWQRRYFYLFPNRLEWRGEGEAPQSLLTMEEIQSVEETQIKERKCLLLKIRGGKQFVLQCDSDPELVQWKKELRDAYREAQQLVQRVPKMKNKPRSPVVELSKVPLIQRGSANGL
# B2: Beta-adrenergic receptor kinase 1 (Bos taurus (Bovine)), P21146 (parent)
# chain: B1 chain
# partner: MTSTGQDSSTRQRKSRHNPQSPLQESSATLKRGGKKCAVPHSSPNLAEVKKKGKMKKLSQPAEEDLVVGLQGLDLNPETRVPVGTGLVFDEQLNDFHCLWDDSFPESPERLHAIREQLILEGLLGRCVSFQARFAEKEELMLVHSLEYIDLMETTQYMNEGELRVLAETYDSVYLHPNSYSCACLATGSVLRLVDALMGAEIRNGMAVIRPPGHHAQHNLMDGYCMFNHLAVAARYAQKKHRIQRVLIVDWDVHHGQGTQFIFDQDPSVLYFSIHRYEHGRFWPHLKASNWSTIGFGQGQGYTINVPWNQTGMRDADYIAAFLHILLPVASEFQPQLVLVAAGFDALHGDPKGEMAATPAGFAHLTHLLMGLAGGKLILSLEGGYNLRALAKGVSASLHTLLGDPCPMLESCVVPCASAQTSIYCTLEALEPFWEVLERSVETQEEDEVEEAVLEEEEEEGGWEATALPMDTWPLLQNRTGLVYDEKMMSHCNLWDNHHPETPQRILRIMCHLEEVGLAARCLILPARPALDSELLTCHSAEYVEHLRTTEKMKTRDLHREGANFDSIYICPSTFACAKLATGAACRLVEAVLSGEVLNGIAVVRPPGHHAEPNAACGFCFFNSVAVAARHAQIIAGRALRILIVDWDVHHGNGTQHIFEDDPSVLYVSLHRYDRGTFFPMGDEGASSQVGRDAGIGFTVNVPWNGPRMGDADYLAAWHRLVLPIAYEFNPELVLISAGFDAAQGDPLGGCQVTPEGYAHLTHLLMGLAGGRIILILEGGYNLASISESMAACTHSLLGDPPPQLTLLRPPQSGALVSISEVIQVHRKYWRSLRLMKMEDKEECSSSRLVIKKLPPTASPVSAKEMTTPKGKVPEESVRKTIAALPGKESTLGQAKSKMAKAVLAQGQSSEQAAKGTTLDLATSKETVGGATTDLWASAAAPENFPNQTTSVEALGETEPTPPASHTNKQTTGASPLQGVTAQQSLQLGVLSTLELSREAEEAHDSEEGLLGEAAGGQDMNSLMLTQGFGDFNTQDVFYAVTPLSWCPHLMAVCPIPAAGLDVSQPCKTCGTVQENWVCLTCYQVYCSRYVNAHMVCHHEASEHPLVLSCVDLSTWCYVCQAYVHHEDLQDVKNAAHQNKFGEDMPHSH
# Variants of: B1
# Conditions: with hdac6_human HDAC6, Q9UBN7
# Chain of hdac6_human HDAC6, Q9UBN7 (Q9UBN7 whole entry): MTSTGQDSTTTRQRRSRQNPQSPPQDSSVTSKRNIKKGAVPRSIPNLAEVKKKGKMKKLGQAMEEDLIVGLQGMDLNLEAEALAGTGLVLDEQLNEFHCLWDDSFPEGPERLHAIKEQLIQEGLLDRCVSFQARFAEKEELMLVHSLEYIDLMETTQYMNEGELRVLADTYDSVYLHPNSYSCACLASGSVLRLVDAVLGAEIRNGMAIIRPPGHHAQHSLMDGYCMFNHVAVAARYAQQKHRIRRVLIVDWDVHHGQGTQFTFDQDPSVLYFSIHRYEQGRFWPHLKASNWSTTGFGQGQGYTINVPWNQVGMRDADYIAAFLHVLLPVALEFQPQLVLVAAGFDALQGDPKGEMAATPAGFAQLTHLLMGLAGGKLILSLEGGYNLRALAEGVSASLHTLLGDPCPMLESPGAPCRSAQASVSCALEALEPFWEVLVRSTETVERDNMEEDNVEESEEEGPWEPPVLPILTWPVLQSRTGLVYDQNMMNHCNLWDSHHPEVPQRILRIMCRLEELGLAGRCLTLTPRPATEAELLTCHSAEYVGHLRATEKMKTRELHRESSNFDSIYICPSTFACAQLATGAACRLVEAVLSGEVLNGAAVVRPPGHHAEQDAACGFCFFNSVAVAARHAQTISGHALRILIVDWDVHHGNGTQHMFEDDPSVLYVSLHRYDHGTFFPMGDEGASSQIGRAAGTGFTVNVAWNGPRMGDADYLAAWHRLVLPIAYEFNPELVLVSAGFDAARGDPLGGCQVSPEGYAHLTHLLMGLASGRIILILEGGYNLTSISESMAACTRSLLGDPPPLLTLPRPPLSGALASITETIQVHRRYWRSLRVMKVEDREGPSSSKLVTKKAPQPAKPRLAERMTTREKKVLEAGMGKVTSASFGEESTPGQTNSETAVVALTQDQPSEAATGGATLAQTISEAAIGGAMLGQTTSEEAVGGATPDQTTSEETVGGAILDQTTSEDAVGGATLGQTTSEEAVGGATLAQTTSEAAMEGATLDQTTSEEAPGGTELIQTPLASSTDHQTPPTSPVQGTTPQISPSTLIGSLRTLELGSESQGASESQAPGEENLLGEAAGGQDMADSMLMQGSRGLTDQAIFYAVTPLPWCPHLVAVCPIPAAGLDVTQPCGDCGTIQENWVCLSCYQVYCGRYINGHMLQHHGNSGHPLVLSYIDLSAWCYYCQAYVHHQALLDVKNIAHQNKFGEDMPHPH
row,effect of a mutation on the interaction,Variant
1,disrupting interaction,K220R

# Variants of: B1
# Conditions: with hdac6_human HDAC6, Q9UBN7
# Remark: another data set of the same source
row,effect of a mutation on the interaction,Variant
1,decreasing interaction,S670A

# Variants of: B2
# Conditions: with hdac6_mouse Hdac6, Q9Z2V5
row,effect of a mutation on the interaction,Variant
1,increasing interaction,K220R
